Experimental data as given in patent US20240368275A1 (ELPIS BIOPHARMACEUTICALS, published 2024).

T1: human Nectin4-Fc fusion protein (human, UniProt Q96NY8 32-349)
T1 construct: Recombinant protein coated in the scFv ELISA and captured on the anti-hFc chip in the scFv SPR; also called recombinant Nectin4-Fc fusion protein; human Nectin4-Fc protein; not shown: Fc part
T1 sequence (looked up): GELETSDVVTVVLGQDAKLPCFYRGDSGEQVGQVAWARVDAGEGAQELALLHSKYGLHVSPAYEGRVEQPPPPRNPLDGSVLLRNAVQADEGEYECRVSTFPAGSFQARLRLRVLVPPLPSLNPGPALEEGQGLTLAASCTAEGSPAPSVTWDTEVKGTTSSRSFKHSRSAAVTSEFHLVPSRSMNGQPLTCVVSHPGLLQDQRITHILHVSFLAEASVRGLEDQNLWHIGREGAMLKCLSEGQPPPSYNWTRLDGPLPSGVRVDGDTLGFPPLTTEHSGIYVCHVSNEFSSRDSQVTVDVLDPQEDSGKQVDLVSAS

T2: full-length human Nectin4 with C-terminal flag and Myc tags on CHO cells (human, UniProt Q96NY8 32-510)
T2 construct: whole, on cells; also called Nectin4/CHO; CHO/Nectin4; not shown: C-terminal flag and Myc tags of pCMV6-Entry vector
T2 sequence (looked up): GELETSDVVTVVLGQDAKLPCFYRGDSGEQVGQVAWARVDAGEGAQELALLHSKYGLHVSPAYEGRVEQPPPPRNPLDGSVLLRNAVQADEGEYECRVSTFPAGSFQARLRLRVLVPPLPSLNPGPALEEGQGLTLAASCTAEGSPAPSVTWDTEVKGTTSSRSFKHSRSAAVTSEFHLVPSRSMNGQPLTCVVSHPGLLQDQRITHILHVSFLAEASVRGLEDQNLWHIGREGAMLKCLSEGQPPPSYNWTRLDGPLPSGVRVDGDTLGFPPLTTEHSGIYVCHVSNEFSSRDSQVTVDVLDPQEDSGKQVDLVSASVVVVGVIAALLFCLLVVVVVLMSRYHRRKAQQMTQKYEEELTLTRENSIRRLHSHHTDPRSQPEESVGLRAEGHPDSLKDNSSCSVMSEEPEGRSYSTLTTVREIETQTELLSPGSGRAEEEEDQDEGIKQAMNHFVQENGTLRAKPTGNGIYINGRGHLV

B1: 2020EP034-E01 scFv (scFv, V domains shown)
VH: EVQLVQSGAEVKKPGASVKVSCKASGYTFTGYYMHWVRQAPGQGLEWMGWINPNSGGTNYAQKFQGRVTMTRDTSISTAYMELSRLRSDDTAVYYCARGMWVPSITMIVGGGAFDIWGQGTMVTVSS
VL: DVVMTQSPLSLPVTPGEPASMSCRSSESLLHRNGFNYLDWYVQRPGQSPKLLIYMGSYRASGVPDRFSGRGSGTDFALKISRVEAEDVGVYYCMQALQSPPLYTFGPGTKLEIK
B2: 2020EP034-B09 scFv (scFv, V domains shown)
VH: EVQLVQSGAEVKKPGASVKVSCKASGYTFTGYYMHWVRQAPGQGLEWMGRINPNSGGTNYAQKFQGRVTMTRDTSISTAYMELSGLRSDDTAVYFCARVTYNIGWYIDYWGQGTLVTVSS
VL: QAVVTQPPSVSVAPGKTATITCGGNNIGSKGVHWYQQKPGQAPVLVIYYDTDRPSGIPERLSGSNSGNTATLTISRVEAGDEADYYCQVWDSSSDHPVFGGGTKLTVL
B3: 2021EP023-D06 scFv (scFv, V domains shown)
VH: QVQLVESGAEVKKPGSSVKVSCKASGGTFSSYAISWVRQAPGQGLEWMGGIIPIFGTANYAQKFQGRVTITADESTSTAYMELSSLRSEDTAVYYCARSRPVRGAYYWGQGTLVTVSS
VL: DIQMTQSPSSLSASVGDRVTITCRASQIVNSNYLNWYQQKPGKAPNLLIYGVSNLQVGVPSRFSGSGSGTDFTLSISSLQVEDSATYYCQQSYTTPRYSFGQGTKLEIRR
notes: Purified scFv with C-terminal flag and 6xHis tag
B4: 2020EP47-F02 scFv (scFv, V domains shown)
VH: QVQLQQWGAGLLKPSETLSLTCAVYGGSFSGYYWSWIRQPPGKGLEWIGEINHSGSTNYNPSLKSRVTISVDTSKNQFSLKLSSVTAADTAVYYCARGWYLGFDYWGQGTLVTVSS
VL: QSVLTQPRSVSGSPGQSVTISCTGTSRDVGGYDYVSWYQQYPGKAPKLMISGVSERPSGVPDRFTGSRSANTASLTISGLQTDDEANYYCCSYAGSFTWVFGDGTKLTVL
notes: also called EP047-F02
B5: 2021EP032-E06 scFv (scFv, V domains shown)
VH: QVQLVESGAEVKKPGASVKVSCKASGYTFTGYYMHWVRQAPGQGLEWMGRINPNSGGTNYAQKFQGRFTISRDNSKTTLFLQMNSLRAEDTAVYYCAKADYQWVGAIFRLNAFDIWGQGTMVTVSS
VL: VIWMTQSPSSLSASVGDRVTITCRASQGISNYLAWYQQKPGKVPKLLIYAASTLQSGVPSRFSGSGSGTDFTLTISSLQPEDVATYYCQKYNSAPYTFGQGTKLEIK
B6: 2021EP030-C11 scFv (scFv, V domains shown)
VH: QMQLVQSKPEVKKPGTSVKVSCKASGFTFTSSAVQWVRQARGQRLEWIGWIVVGSGNTNYAQKFQERVTITRDMSTSTAYMELSSLRSEDTAVYYCAADGDYDIEGALDYWGQGTLVTVSS
VL: EIVLTQSPAILSLSPGERATLSCRASQSVSSYLAWYQQKPGQAPRLLIYDASNRATGIPARFSGSGSGTDFTLTISSLEPEDFAVYYCQQRSNWITFGGGTKVEIK
B7: 2021EP030-B10 scFv (scFv, V domains shown)
VH: QVQLVESGGDLVNPGRSLRLACTGAGFTFGDYAVSWFRQAPGKGLEWVGFIESKPYGETREYAASVRGRFTISRDDSKGIAYLQMNGLKTEDTGVYYCSSVVAWVAYWGQGTLVTVSS
VL: AIQLTQSPSSLSASIGDRVTITCRASQSVTTYLNWYHQKPGKAPTFLIYGTSALQSGVPSRFSGSGSGTDFTLTISSLQPEDFGIYYCQQSYSLPPTFGGGTNVQIR
B8: 2021EP032-D10 scFv (scFv, V domains shown)
VH: EVQLVESGAEVKKPGSSVKVSCKASGGTFSSYAISWVRQAPGQGLEWMGGIIPIFGTANYAQKFQGRVAITADESTSTAYMELSSLRSEDTAVYYCARDLAIVYGSGSYYNHHPRIDYYYYGMDVWGQGTTVTVSS
VL: QSVLTQPRSVSGSPGQSVTISCAGTSSDIGAYNYVSWYQQHPGKAPTLMINDVSKRPSGVPDRFSGSKSGNTASLTISGLQAEDEGDYYCFSYAGSYTLVFGGGTQLTVL
B9: 2021EP029-C04 scFv (scFv, V domains shown)
VH: QLQLQQSGPGLVKPSQTLSLTCAISGDSVSSNRAAWSWIRQSPSRGLEWLGRTYYRSKWYNDYAVSVESRIIINPDTSKNQFSLQLNPVTPEDTAVYYCARGSFESTWLWGQGTLVTVSS
VL: QAVVTQPHSVSESPGKTVTISCTRSGGSIANNYVHWYQQRPGSFPTALIYQDNQRRSGVPDRFSGSIDSSSNSASLTISGLKTEDEAEYYCQSFDNNNVVFGGGTQLTVL
B10: 2021EP030-F02 scFv (scFv, V domains shown)
VH: QVQLQESGPGLVKPSETLSLTCTVSGGSISSSSYYWGWIRQPPGKGLEWIGSIYYSGSTYYNPSLKSRVTISVDTSKNQFSLKLSSVTAADTAVYYCARQANQVVPAAIPWAKPGGTPPNWFDPWGQGTLVTVSS
VL: QLVLTQPPSVSVAPGETARITCGGNNIGSKSVHWYQQKPGQAPVLVIYYDSARPSGIPERVSGSNSGNTATLTISRVEAGDEADYYCQVWDSSSDHPRVFGTGTKLTVL

Experiments:
[1] = biological target: T1, human Nectin4-Fc fusion protein; assay: SPR Biacore T200, Nectin4-Fc captured on anti-hFc chip, scFv injected
Description: Kinetic analysis of anti-Nectin4 scFvs has been assessed by SPR technology with Biacore T200. The assay was run with Biacore T200 control software version 2.0. Anti-human Fc antibody was immobilized on flow cell 1 and 2 of CM5 sensor chip. For each cycle, 1 ug/mL of human Nectin4-Fc protein was captured for 60 seconds at flow rate of 10 ul/min on flow cell 2 in 1×HBSP buffer on anti-hFc sensor chip. 2-fold serial diluted HIS tag purified anti-Nectin4 scFv was injected onto both reference flow cell 1 and Nectin4-Fc captured flow cell 2 for 150 seconds at flow rate of 30 ul/min followed by wash for 300 seconds. The flow cells were then regenerated with Antibody regeneration buffer (GE) for 30 seconds at flow rate of 30 ul/mins. 8 concentration points from 300-0 nM was assayed per anti-Nectin4 scFv in a 96 well plate. The kinetics of scFvs binding to Nectin4 protein was analyzed with Biacore T200 evaluation software version 3.0. The specific binding response unit was derived from subtraction of binding to reference flow cell 1 from Nectin4 captured flow cell 2.

[2] = biological target: T2, full-length human Nectin4 with …; assay: flow cytometry, scFv on Nectin4/CHO cells
Description: To determine whether anti-Nectin4 scFvs bind to Nectin4 expressing cells, 200 nM of purified anti-Nectin4 scFv antibodies were diluted in full medium and incubated with Nectin4/CHO and CHO cells in 96 wells plate on ice for 1 hour. Cells were spun down at 1200 rpm for 5 minutes at 4° C. to remove primary antibodies. Cells were then washed once with 200 uL of full medium per well. Samples were detected with premixed anti-His Biotin Streptavidin Alexa fluor 647 by adding 100 uL of diluted secondary antibody and incubated at 4° C. for 30 minutes in the dark. Samples were spun down at 1200 rpm for 5 minutes at 4° C. and washed twice with 200 uL of 1×PBS per well. Reconstituted samples in 200 uL of 1×PBS and read on Attune NxT cytometer. Analysis was done by Attune NxT software plotting the overlay histogram of anti-Nectin4 scFvs binding onto both negative and target cell lines.

[3] = biological target: T1, human Nectin4-Fc fusion protein; assay: ELISA, coated human Nectin4-Fc, scFv titrated, anti-Flag HRP
Description: An ELISA assay was developed to determine the EC₅₀ of anti-Nectin4 antibodies. Briefly, 384 well plate was immobilized with human Nectin4-Fc at final concentration of 2 ug/mL in 1×PBS in total volume of 25 uL per well. The plate was incubated overnight at 4° C. followed by blocking with 80 uL of superblock per well for 1 hour. Purified anti-Nectin4 scFvs were 2-fold serial titrated from 200 nM. 25 uL was added to human Nectin4 immobilized wells and incubated for 1 hour with shaking. The Nectin4 binding was detected by adding 25 uL of anti-Flag HRP diluted at 1:5000 in 1×PBST. In between each step, the plate was washed 3 times with 1×PBST in a plate washer. The plate was then developed with 20 uL of TMB substrate for 5 mins and stopped by adding 20 uL of 2 N sulfuric acid. The plate was read at OD450 nm Biotek plate reader and then plotted in Prism 8.1 software.

| Binder | Kd [1] | koff [1] | kon [1] | EC50 [2] | EC50 [3] |
| --- | --- | --- | --- | --- | --- |
| B1 | 10.9 nM | 0.000406 s⁻¹ | 37000 M⁻¹ s⁻¹ | > 50 nM | – |
| B2 | 1.47 nM | 0.00018 s⁻¹ | 122000 M⁻¹ s⁻¹ | 0.36 nM | 5.07 nM |
| B3 | 0.407 nM | 0.000195 s⁻¹ | 480000 M⁻¹ s⁻¹ | – | – |
| B4 | – | – | – | 4.51 nM | – |
| B5 | – | – | – | < 0.001 nM | 0.412 nM |
| B6 | 55.5 nM | 0.000262 s⁻¹ | 4710 M⁻¹ s⁻¹ | 13 nM | 291 nM |
| B7 | – | – | – | 24.2 nM | – |
| B8 | – | – | – | 0.29 nM | 8.76 nM |
| B9 | – | – | – | 0.001 nM | 0.857 nM |
| B10 | 1.85 nM | 0.000215 s⁻¹ | 116000 M⁻¹ s⁻¹ | 0.194 nM | 2.97 nM |
